The source of these data is patent US20100029568A1, “TIGHTER-BINDING C-PEPTIDE INHIBITORS OF HIV-1 ENTRY” (priority 2007, published 2010).

Experiment [1] addresses Res 2 (L33S) Env from HIV-1 strain HXB2 (HIV-1 strain HXB2), P04578. The experiment can be described thus: cell-based or functional assay.
The target in experiment [2] is Res 3 Env (N637K) from HIV-1 strain HXB2 (HIV-1 strain HXB2), P04578. The experiment can be described thus: cell-based or functional assay.
For experiment [3], the target named is Res 4 (SDTV) Env from HIV-1 strain HXB2 (HIV-1 strain HXB2), P04578. Description: cell-based or functional assay.
For experiment [4], the target named is V549E mutant Env (Res1) from HIV-1 strain HXB2 (HIV-1 strain HXB2), P04578. The experiment can be described thus: cell-based or functional assay.
Experiment [5] concerns the target wild type Env (gp120/gp41) from HIV-1 strain HXB2 (HIV-1 strain HXB2), P04578. The experiment can be described thus: cell-based or functional assay.
The target in experiment [6] is N36 (HIV-1), P04578. Description: estimated Kd; method not stated.
Experiment [7] has as its target N36 (HIV-1), P04578. Description: estimated Kd; method not stated; reference is wild type C37 on N36.

Some results are limits rather than exact numbers.

Broadly, the Kd is the free concentration of one partner at which half of the binding sites on the other are occupied at equilibrium, for simple one-to-one binding.

As to HTTWMEWDREINKYISLIHSLIEESQNQQEKNEQELL (modifications not checked) [C37-KYI], the IC50, nM; inhibitory potency against pseudotyped HIV-1 in experiment [1] came to 1 nM; in experiment [2], 4.1 nM; in experiment [3] it was 0.6 nM; in experiment [4], 4.2 nM; in experiment [5], 1 nM. For the same molecule, in the experiment with N36 (HIV-1), P04578 [6], the dissociation constant Kd was 0.04 pM. The fold lower Kd than wild type C37 in the experiment with N36 (HIV-1), P04578 [7] was above 20 fold.
